{"source": "patent US10759863B2", "about": "“Modulation of γδ T cells” (Sanford Burnham Prebys Medical Discovery Institute, priority 2013, dated 2020)", "molecules": {"B1": {"name": "IL-23: cytokine, potent γδT cell activator (protein, UniProt Q9NPF7 20-189; P29460 23-328, looked up)", "Interleukin-23 subunit alpha": "RAVPGGSSPAWTQCQQLSQKLCTLAWSAHPLVGHMDLREEGDEETTNDVPHIQCGDGCDPQGLRDNSQFCLQRIHQGLIFYEKLLGSDIFTGEPSLLPDSPVGQLHASLLGLSQLLQPEGHHWETQQIPSLSPSQPWQRLLLRFKILRSLQAFVAVAARVFAHGAATLSP", "Interleukin-12 subunit beta": "IWELKKDVYVVELDWYPDAPGEMVVLTCDTPEEDGITWTLDQSSEVLGSGKTLTIQVKEFGDAGQYTCHKGGEVLSHSLLLLHKKEDGIWSTDILKDQKEPKNKTFLRCEAKNYSGRFTCWWLTTISTDLTFSVKSSRGSSDPQGVTCGAATLSAERVRGDNKEYEYSVECQEDSACPAAEESLPIEVMVDAVHKLKYENYTSSFFIRDIIKPDPPKNLQLKPLKNSRQVEVSWEYPDTWSTPHSYFSLTFCVQVQGKSKREKKDRVFTDKTSATVICRKNASISVRAQDRYYSSSWSEWASVPCS"}, "B2": {"name": "IL-7: cytokine IL-7 (R&D Systems), added at 10 ng/ml (protein, UniProt P13232 26-177, looked up)", "Interleukin-7": "DCDIEGKDGKQYESVLMVSIDQLLDSMKEIGSNCLNNEFNFFKRHICDANKEGMFLFRAARKLRQFLKMNSTGDFDLHLLKVSEGTTILLNCTGQVKGRKPAALGEAQPTKSLEENKSLKEQKKLNDLCFLKRLLQEIKTCWNKILMGTKEH"}}, "key": {"[1]": {"tested_on": "RORγt", "test": "Digoxin treatment of RORγt-expressing Jurkat cells, BTLA expression", "assay_type": "cell-based", "details": "digoxin vs DMSO, 24-48 hrs, FIG. 11B", "method": "(§1) Surface staining was performed on ice for 20-30 min. Intracellular staining was performed using the BD Cytofix/Cytoperm™ Kit according the manufacturer's instructions (BD Biosciences). Stained cells were acquired using a BD LSRFortessa™ equipped with 4 lasers (blue at 488 nm, yellow-green at 561 nm, red at 640 nm, violet at 405 nm). Antibodies in SI.\nFor qRT-PCR analysis, total RNA was prepared from FACS sorted populations using the Qiagen RNeasy Mini kit according to the manufacturer's instructions (Qiagen, Valencia, Calif.). RNA was reverse transcribed into cDNA using the iScript™ cDNA synthesis kit (Bio-Rad Laboratories, Hercules, Calif.) according to the manufacturer's instructions. Target genes were detected using intron-spanning primers (Invitrogen) and relative expression was measured using Power® SYBR Master mix (Life Technologies, Grand Island, N.Y.). Reactions were carried out in clear 384 plates using an ABI® 7900 Real-Time PCR System (Life Technologies). We calculated relative expression as follows: 2^−Dct, where Ct=cycle number, DCt=Ct (target gene)−Ct (house-keeping gene). A value of 1 means equal expression of target and house-keeping gene (L32). Oligo sequences (5′-3′):\nJurkat cells were cultured at 10^5/100 μl in U-bottom wells for 24-48 hrs with either DMSO or the indicated concentrations of digoxin (Sigma-Aldrich). […]"}, "[2]": {"tested_on": "BTLA expression in γδT cells and ILCs", "test": "Cytokine-induced BTLA expression in cultured iLN γδT cells and PP ILCs", "assay_type": "cell-based, mice", "details": "for BTLA induction in RORγt+ γδT cells after culture with activating cytokines: iLN lymphocytes of Rorc(t)gfp/+ mice enriched for CD27− γδT cells, FIG. 17A", "method": "as §1\n(§2) For IL-7 induced expansion iLN lymphocytes were cultured in RF10 media (RPMI+10% FBS, p/s, L-Glutamine) at 10^7/ml in 12-well plates for four days. For IL-7 induced BTLA expression iLN or PP lymphocytes were enriched for ILCs and CD27^− γδT cells and cultured in RF10 media in 24-well plates containing feeder adherent cells for two days. Following enrichment, cells from 3 animals were cultured in 1 ml in a single well. IL-7 (R&D Systems, Minneapolis, Minn.) was added at 10 ng/ml. For IL-17 and TNF production whole lymph node cells were cultured with or without 10 ng/ml IL-7 for 18 hours and then re-stimulated with PMA (50 ng/ml), ionomycin (750 ng/ml) and Golgi Stop™ (BD Biosciences) for 3.5 hours. TH17 differentiation was performed by isolating CD4^+ T cells from spleens and culturing in anti-CD3 (5 μg/ml) coated 24-well plates at 1.35×10^6/ml with anti-CD28 (2 μg/ml), IL-6 (20 ng/ml) and TGFβ1 (2 ng/ml). At day 5, cells were washed and re-stimulated with PMA+ionomycin and Golgi Stop™ (BD Biosciences) for 3.5 hours. For induction of human IL-22, tonsil lymphocytes were cultured in RF10 media at 1.5×10^6/ml in 24-well plates for 6 hours in the presence of 40 ng/ml IL-23 (eBiosciences) and 10 ng/ml IL-1β (R&D Systems). Golgi Stop™ (BD Biosciences) was added during the final 3 hours.\nJurkat cells were cultured at 10^5/100 μl in U-bottom wells for 24-48 hrs with either DMSO or the indicated concentrations of digoxin (Sigma-Aldrich). To test the effect of STAT5 in IL-7-induced BTLA expression, CD27^− gd T cells were enriched from lymph nodes of Rorc(t)^gfp/+ mice and cultured for two days in 24-well plates containing feeder adherent cells with no stimulus, or with IL-7 in the presence or absence of STAT inhibitor (EMD Millipore, Billerica, Mass.) at the indicated concentrations."}, "[3]": {"tested_on": "γδT cells", "test": "IL-17 and TNF production by lymph node γδT cells with or without IL-7", "assay_type": "cell-based, mice", "details": "all γδT subsets, IL-7 10 ng/ml 18 hours then PMA/ionomycin; FIG. 5", "method": "as §1\nas §2, with “For induction of human IL-22, tonsil lymphocytes were cultured in RF10 media at 1.5×10^6/ml in 24-well plates for 6 hours in the presence of 40 ng/ml IL-23 (eBiosciences) and 10 ng/ml IL-1β (R&D Systems). Golgi Stop™ (BD Biosciences) was added during the final 3 hours.” left out"}, "[4]": {"tested_on": "γδT cells", "test": "IL-7 induced expansion of iLN lymphocytes cultured ex vivo", "assay_type": "cell-based, mice", "details": "IL-7 10 ng/ml, four days, vs untreated cultures; FIG. 4A", "method": "as §2"}, "[5]": {"details": "iLN γδT cells and PP ILCs from Rorc(t)gfp/+ mice, IL-7 10 ng/ml, two days, vs untreated, FIG. 4G-K"}}}
{"molecule": "C[C@H]1O[C@@H](O[C@H]2[C@@H](O)C[C@H](O[C@H]3[C@@H](O)C[C@H](O[C@H]4CC[C@@]5(C)[C@H](CC[C@@H]6[C@@H]5C[C@@H](O)[C@]5(C)[C@@H](C7=CC(=O)OC7)CC[C@]65O)C4)O[C@@H]3C)O[C@@H]2C)C[C@H](O)[C@@H]1O", "note": "[digoxin]", "values": [{"measurement": "BTLA expression at the mRNA level", "setting": "[1]", "value": "induced expression of BTLA"}, {"measurement": "BTLA expression at the protein level (surface expression)", "setting": "[1]", "value": "induced expression of BTLA"}]}
{"molecule": "IL-1β: cytokine, potent γδT cell activator", "values": [{"measurement": "BTLA induction in RORγt+ γδT cells after culture with activating cytokines", "setting": "[2]", "value": "either no or only a minimal effect"}]}
{"molecule": "B1", "values": [{"measurement": "BTLA induction in RORγt+ γδT cells after culture with activating cytokines", "setting": "[2]", "value": "either no or only a minimal effect"}]}
{"molecule": "B2", "values": [{"measurement": "number of BTLA+ cells", "setting": "[2]; [5]", "value": "induced a higher number"}, {"measurement": "surface BTLA expression", "setting": "[2]; [5]", "value": "increased"}, {"measurement": "frequency of IL-17 expressing γδT cells", "setting": "[3]", "value": "enhanced"}, {"measurement": "frequency of TNF expressing γδT cells", "setting": "[3]", "value": "enhanced"}, {"measurement": "viability of γδT cells within lymph node lymphocytes cultured ex vivo", "setting": "[4]", "value": "sustained viability"}]}
